Test results published in the supplement of paper PMC9170038.

Legend:
MS2 coat protein [1] = test: apparent KD of MS2 coat protein; designed switch direction (-1 OFF switch, 1 ON switch): 1; higher = weaker reporter binding
Summary of the method: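 Three titration conditions were used: no input, 200 uM small-molecule ligand, and an oligonucleotide input. In each, SNAP-549-labelled MS2 coat protein was raised from 0.7 or 1.5 nM, doubling, to 3 µM over designed RNA switches transcribed on Illumina chips by stalled E. coli RNA polymerase. Curve fits of normalised cluster fluorescence gave values whose per-design median over clusters is the apparent KD.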

MS2 coat protein [2] = test: apparent KD of MS2 coat protein; higher = weaker reporter binding; conditions: Eterna round: R107
Summary of the method: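 Each design's apparent KD comes from the median of binding-curve fits to its normalised clusters. Those clusters carried RNA switches transcribed on-chip from Illumina sequencing clusters. SNAP-549-labelled MS2 coat protein was titrated onto them in twofold steps (0.7 or 1.5 nM to 3 µM; per step 0.8–1.5 h down to 10–20 min). Conditions were 100 mM Tris-HCl pH 7.5, 80 mM KCl, 4 mM MgCl2, without or with constant ligand.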

[3] = input ligand: theophylline 20 uM
[4] = input ligand: tryptophan 2.4 mM
[5] = input ligand: theophylline 2 mM

Sequence | apparent KD of MS2 coat protein (MS2 coat protein [1]; input ligand: FMN 200 uM) | apparent KD of MS2 coat protein (MS2 coat protein [1]; input ligand: microRNA oligo, concentration not stated) | apparent KD of MS2 coat protein (MS2 coat protein [1]; input ligand: none) | apparent KD of MS2 coat protein (MS2 coat protein [2]; input ligand: arginine 13.2 mM) | apparent KD of MS2 coat protein (MS2 coat protein [2]; [3]) | apparent KD of MS2 coat protein (MS2 coat protein [2]; [4]) | apparent KD of MS2 coat protein (MS2 coat protein [2]; input ligand: none) | apparent KD of MS2 coat protein (MS2 coat protein [2]; [5])
AAAAAACAUGAGGAUCACCCAUGUGAAAAUAUGGGAGGAUAUACAAACACGAAAGUGAAAGUAGAAGGCCUAAAAA [SS! MT 16] (Eterna round: R96, puzzle: Same State 1) | 17.2 nM | 95.4 nM | 127 nM | – | – | – | – | –
UGGCAGGAGUGAUCCUCCUGCCAAGGUGAUACCAGCAUCGAAAGAUGCCCUUGGCAGCACCAACAUGAGGAUCACCCAUGUAAUA [(MT)''-(M)'-(T')-(Theo)-(Ms2)_Design1/22_10] | – | – | – | 34.1 nM | 177 nM | 104 nM | – | –
UGGUACAUGGCGGCCGCCACUUCACGUAAAAUAAAAGCGUGAGGAUCACCCAUGCAAUAAGUUGGGAGGACCGGGUCAUGUACCU | – | – | – | 311 nM | 633 nM | 244 nM | 287 nM | 387 nM
UGGUGUAGGGUAAAUAGGAUUAGUACAGAAGGAGCGCGAAUAAACGCAGGUAGGUCGCUGGAAUAAACAUGAGGAUCACCCAUGU [Same State Arginine A GF 27] | – | – | – | 17.4 nM | 27.4 nM | 20.7 nM | 19.2 nM | 21.5 nM
UGGUGUAGGGUAAAUAGGAUUAGUACAGAAGGAGCGCGAAUAAACGCAGGUAGGUCGCUGGAAUACAUGAGGAUCACCCAUGUUC [Same State Arginine A GF 25] | – | – | – | 22.6 nM | 24.7 nM | 26 nM | 22 nM | 26.7 nM
UGUACAUAAUUAGGUUACCUAUGUACAGAAGGAGCGUCGAUGACGACAGGUAGGUCGCUGUUAACAUGAGGAUCACCCAUGUACA [Arg A Ex t4] | – | – | – | 37.7 nM | 46.2 nM | 42.4 nM | 44.4 nM | 57.3 nM
UGUACCAUGUCGGCCGCCACUCAUGAUAAAUAUGAGGAUCACCCAUAUAGCGUCAAAGACGCUAUGAGGACCGGGACAUGGUACU [TryBS Zipper 2] | – | – | – | 40.8 nM | 50.5 nM | 14 nM | 41.3 nM | 50.4 nM
UGUACUAUGUGAAGGAGCGAGAAUCCUACAUGAGGAUCACCCAUGUAACAGCGAAAGCUGACUCAGGUAGGUCGCACAUAGUACU [ArgBS - First try] | – | – | – | 111 nM | 115 nM | 128 nM | 130 nM | 144 nM
UGUAUGGACUGAAGGAGCGCCUCAAAAUAACAUGAGGAUCACCCAUGUGGCGAAAGCCUUGGGCAGGUAGGUCGCAGUCCAUACU [ArgBX 1 #StaticStem] | – | – | – | 62 nM | 76.2 nM | 52.9 nM | 49.9 nM | 72.1 nM
UGUAUGGACUGAAGGAGCGCCUCAAAAUAGCAUGAGGAACACCCAUGCAAGGCGAAAGCCGGGCAGGUAGGUCGCAGUCCAUACU [ArgBX 3] | – | – | – | 21 nM | 32.2 nM | 22.6 nM | 20.3 nM | 27.2 nM
UGUAUGGACUGAAGGAGCGCCUCAAAAUAGCAUGAGGAUCACCCAUGCAAGGCGAAAGCCGGGCAGGUAGGUCGCAGUCCAUACU [ArgBX 3] | – | – | – | 13.5 nM | 14 nM | 13 nM | – | 14.5 nM
UGUAUGGACUGAAGGAGCGGAAGAUAGCUUGAGGAUCACCCAAGUAAUAAGGCGAAAGCCUUCCAGGUAGGUCGCAGUCCAUACU | – | – | – | 31.4 nM | 43.1 nM | 38.6 nM | 35.2 nM | 38 nM
UGUAUGGACUGAAGGAGCGGUUGAUAACAUGAGCAUCAGCCAUGUAAUAAGGCGAAAGCCAACCAGGUAGGUCGCAGUCCAUACU | – | – | – | 8.26 nM | 12.5 nM | 14.8 nM | 9.68 nM | 9.11 nM
UGUAUGUGAUCUGAUACCAGAGUGACGCGAAAGCGAACCUGAGGAUCACCCUGGUAAUAACUCCCUUGGCAGCAGAUCGCAUACU | – | – | – | 73.1 nM | 44.3 nM | 69.8 nM | 61.1 nM | 20.7 nM
UGUAUGUGAUCUGAUACCAGCGUUGAUAACCUGAGGAUCACCCUGGUAAAGGCGAAAGCCCGCCCUUGGCAGCAGAUCGCAUACU | – | – | – | 182 nM | 280 nM | 787 nM | 611 nM | 24.9 nM
UGUAUGUGAUCUGAUACCAGCUAGCGGAAACGCAAAAGCUUGAGGAUCACCCAAGUGGAAAGCCCUUGGCAGCAGAUCGCAUACU [Denovo 1 #StaticStem #AlternativeMS2] | – | – | – | 17.5 nM | 14.7 nM | 17.4 nM | 15.1 nM | 9.89 nM
UGUAUGUGAUCUGAUACCAGUCCAACUGGUAAAACACGAGGAUCACCCGUGUAAAAUUGGGACCCUUGGCAGCAGAUCGCAUACU | – | – | – | 70 nM | 51.9 nM | 87.9 nM | 87.5 nM | 12.6 nM
UGUAUGUGAUUUGAUACCAGACCAGCGGGUGUUGCAUGAGGAUCACCCAUGUAGGUUUGGGUCCCUUGGCAGCAAAUCGCAUACU [SS Theo B #24 Ms18] | – | – | – | 289 nM | 438 nM | 523 nM | 482 nM | 127 nM
UGUAUGUGAUUUGAUACCAGUCCAACUGGUAAAACAUGAGGAUCACCCAUGUAAAAUUGGGACCCUUGGCAGCAAAUCGCAUACU [SSTheo B #21] | – | – | – | 144 nM | 346 nM | 534 nM | – | –

Sequence | apparent KD of MS2 coat protein (MS2 coat protein [1]; input ligand: FMN 200 uM) | apparent KD of MS2 coat protein (MS2 coat protein [1]; input ligand: microRNA oligo, concentration not stated) | apparent KD of MS2 coat protein (MS2 coat protein [1]; input ligand: none) | apparent KD of MS2 coat protein (MS2 coat protein [2]; input ligand: arginine 13.2 mM) | apparent KD of MS2 coat protein (MS2 coat protein [2]; [3]) | apparent KD of MS2 coat protein (MS2 coat protein [2]; [4]) | apparent KD of MS2 coat protein (MS2 coat protein [2]; input ligand: none) | apparent KD of MS2 coat protein (MS2 coat protein [2]; [5])
UGUCAGCGAAAGUUGACAUGUCUUACCGGUCGAGGACCGGUACGGCCGCCACUCGAUCACUCGCACAUGAGGAUCACCCAUGUCG [SS Tryp A #20] | – | – | – | 11.7 nM | 14.5 nM | – | – | 13.9 nM
UGUUUGGUGCGCGAGUGUUGGAUAAUUGAUACCAGUGUAGAUGUGCGCCCUUGGCAGCGAAUCCGAACAUGAGGAUCACCCAUGU [5.Z] | – | – | – | 41.2 nM | 32.3 nM | 29.5 nM | 27.1 nM | 35.7 nM
UUAAUCUUGGUUGAAAACAAUUAAGCAGAAGGAGCGUGAUAAAACACAGGUAGGUCGCUGAAGGGAACAUGAGGAUCACCCAUGU [AstrosSSArgA#14] | – | – | – | 25.4 nM | 41.1 nM | 25.6 nM | 26.6 nM | 31.6 nM
UUAGAUUGCCGAAGGAGCGAGAUAGCCUACAUGAGGAUCACCCAUGUAGAAACGGGCUGAUCUCAGGUAGGUCGCGGCAGGUAGC [Soaquatan] | – | – | – | 84.6 nM | 27.4 nM | 24.9 nM | 26.2 nM | 25.8 nM
UUAGUAACGACGGCCGCCACUGAAUUUGAACAUGAGGAUCACCCAUGUAGAGAUCCUAGAAUAAACAGGACCGGGUCUGAUAAUG [Exclusion Tryptophane B GF3] | – | – | – | 80.8 nM | 139 nM | – | – | 120 nM
UUAUUUAUAAUGGAUACCAGUCGUAUGGCCCGGCAUCCUGACAUGAGGAUCACCCAUGUCGACCCUUGGCAGCUGUUAUGGGUUU [XTheo B #21] | – | – | – | 14.9 nM | 17 nM | 13.8 nM | – | –
UUCAGACAUGAGGAUCACCCAUGUACUGAAGGAGCGGAUAAAUAUCCAGGUAGGUCGCAGUAUUGAGGGUCUACUUCCAGUCUUA [Rexeesqu] | – | – | – | 11.7 nM | 12.9 nM | 10.1 nM | 9.36 nM | 10.4 nM
UUCCACCUAAAGCGUUGCCCUCGUGAUGAUACCAGUUUCAGCGGUAACCCUUGGCAGCAUCGGACAUGAGGAUCACCCAUGUGGA [theeternabot_exclusion_MS2_Theo_A_47] | – | – | – | 64.9 nM | 136 nM | 107 nM | – | –
UUCUACAUGAGGAUCACCCAUGUGGGUGAUACCAGCACUUUUUGGUGCCCUUGGCAGCACAUGAGAAUGCCGUAAAAUCGGCGAU [Ceanteis] | – | – | – | 74.7 nM | 577 nM | 503 nM | – | –
UUCUGGACCCGUGAUACCAGAGACAUGAGGAUCACCCAUGUACAUGAGGAUCACCCAUGUCUCCCUUGGCAGCACUGCAGGGAGC [Exclusion Theophylline B GF 14] | – | – | – | 45.4 nM | 169 nM | 133 nM | – | –
UUGACAUGAGGAUCACCCAUGUUAGCUGAAGGAGCGAGGUAGUACUCAGGUAGGUCGCAGAGAGCAGAGUUAGUUGUUCUCAUGU [X-ArgiA-ms2@4] | – | – | – | 21.5 nM | 28.5 nM | 18.6 nM | 19.1 nM | 23.3 nM
UUGGGUUUGUGAAGGAGCGGGUAUGUUUUCUAGUGGAUCCUAACAUGAGGAUCACCCAUGUCCCAGGUAGGUCGCGCGGGUUUGG [12.U] | – | – | – | 64.6 nM | 227 nM | 81.8 nM | 117 nM | 99.8 nM
UUGUGGUAGGCGCAUACUCAUUUAUACAAGCGAGGACCGGUACGGCCGCCACUCGGAAUAAAACAUGAGGAUCACCCAUGUACCG [theeternabot_exclusion_MS2_Trp_A_50] | – | – | – | 12.9 nM | 17.1 nM | – | – | 14.6 nM
UUGUUGUUUGGAAGGAGCGUGUAUGAUUUAGAACAUGAGGAUCACCCAUGUUGGAGGAUAGCACAGGUAGGUCGCCGGGUGGUGG [11.X] | – | – | – | 16.2 nM | 23.6 nM | 15 nM | 13.4 nM | 21.4 nM
UUUAUUUAUUUAUUUAUUUAUUUAACAGAAGGAGCGUGGAUUAACACAGGUAGGUCGCUGACAUGAGGAUCACCCAUGUAUUAUU [SSAA #1] | – | – | – | 106 nM | 48 nM | 35.8 nM | 28.4 nM | 41.6 nM
UUUCAGUGGACGGCCGCCACUGAAGUCGAUACAAUCAUGUAGAACAUGAGGAUCACCCAUGUAGUCAGGACCGGGUCCAAUGACU [Tryp B SS t3] | – | – | – | 15.9 nM | 21.3 nM | 20.5 nM | 22.9 nM | 22.8 nM
UUUGCACAUGAGGAUCACCCAUGUACAGAUACCAGCCUCAUCUACGGCCCUUGGCAGCUGAGAUAAUGGUGACGUGAUGGGCUUU [Edaniser] | – | – | – | 13.5 nM | 17.2 nM | 11.6 nM | – | –
UUUUAACAUGAGGAUCACCCAUGUAAUGAUACCAGAGACGAAAGUCUCCCUUGGCAGCAUAAUCAUUACAUGAGAUGGAAACAUC [Theophylline A 7] | – | – | – | 29.2 nM | 48.5 nM | 17.5 nM | – | –
UUUUUUAACAUGGCGUAUCGGAAAACCGAUACCAGUACAGAAAUGUACCCUUGGCAGCGGCGUUUUACAUGAGGAUCACCCAUGU [Ex Theophylline A 3] | – | – | – | 21.2 nM | 65 nM | 27.7 nM | – | –
